{"source": "patent US20050176073A1", "about": "“Cell proliferation associated with CCX CKR expression” (ChemoCentryx, Inc., priority 2004, published 2005)", "key": {"[1]": {"tested_on": "HEK293 cells transfected with CCX CKR", "assay": "PowerBlot protein expression analysis, HEK293 cells transfected with CCX CKR", "assay_type": "cell-based, human", "conditions": "relative to cells simply transformed with CCX CKR; FIG. 2", "procedure": "(§1) Studies were also conducted to assess what effect CCX CKR activity had on protein expression. This was analyzed by determining protein levels for both unstransfected HEK293 cells, and HEK293 cells transfected with CCX CKR, grown both in the presence and absence of the ligands ELC, SLC or TECK. Protein levels were determined using the BD PowerBlot™ technology developed by Becton Dickinson, and available from BD Biosciences Pharmingen. In general, this analysis involves separating proteins in cellular lysates by polyacrylamide electrophoresis and then conducting a Western blot with over 1,000 monoclonal antibodies specific for certain proteins. Antibodies that bind to a protein band on the gel are visualized using a digital camera that detects chemiluminescence from the bound antibody. The amount of protein can be determined based upon the strength of the signal. Further details regarding the application of this technology are discussed by Lorenz, P., et al. Proteomics (2003) 3:991-1002; Malakhov, M. P., et al. (2003) J. Biol. Chem. .278:16608-13; and Yoo, G. H., et al. (2002) Clin Cancer Res. 8:3910-21.\n(§2) FIG. 2 provides a chart that provides a comparison of the number of proteins that were increased and decreased under different sets of conditions."}, "[2]": {"tested_on": "untransfected HEK293 cells", "assay": "PowerBlot protein expression analysis, untransfected HEK293 cells", "assay_type": "cell-based, human", "conditions": "untransfected HEK293 cells contacted with ligand; FIG. 2", "procedure": "as §1, §2"}, "CCX CKR [3]": {"target": "T1, CCX CKR (Homo sapiens, UniProt Q9NPB9)", "T1 sequence (Q9NPB9 1-350)": "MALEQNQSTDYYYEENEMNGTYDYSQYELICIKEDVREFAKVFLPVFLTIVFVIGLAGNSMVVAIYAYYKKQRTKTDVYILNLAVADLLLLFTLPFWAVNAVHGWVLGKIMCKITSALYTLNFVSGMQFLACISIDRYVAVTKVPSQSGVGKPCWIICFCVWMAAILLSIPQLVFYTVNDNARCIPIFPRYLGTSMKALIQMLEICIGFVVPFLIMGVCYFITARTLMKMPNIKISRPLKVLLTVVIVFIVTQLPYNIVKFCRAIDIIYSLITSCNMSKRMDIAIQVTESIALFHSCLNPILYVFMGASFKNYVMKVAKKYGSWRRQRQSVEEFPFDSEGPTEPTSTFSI", "conditions": "WO 01/27146; cited from earlier work"}, "CCX CKR [4]": {"target": "T1, CCX CKR", "assay": "Small molecule modulators of CCX CKR function", "description": "Other compounds are based upon agonists and antagonists for CCX CKR, which have been identified and are shown below: […]"}, "[5]": {"tested_on": "HEK293 cells transfected with CCX CKR", "assay": "Cell growth curves (hemacytometer counting) of HEK293 cells transfected with CCX CKR", "assay_type": "cell-based, human", "conditions": "ligand in growth medium, growth curves over 6 days; FIG. 4", "procedure": "Another set of experiments were conducted to ascertain whether CCX CKR plays a role in cell growth. One experiment involved culturing (1) untransfected HEK293 cells (ATCC #CRL 1573) (control), (2) HEK 293 cells transfected with CCX CKR as a polyclonal mixture, and (3) three different clones of HEK293 stably transfected with CCX CKR, thus giving a total of […] different cell cultures. Each of these cultures were obtained by seeding 50,000 cells/well in triplicate. The three different clones (clones 9, 12 and 13) were obtained by a limited dilution of the polyclonal mixture of cells.\nCells were allowed to attach for 12 hours in growth medium (Dulbecco's minimal essential medium with 10% fetal bovine serum), then cultured in the absence of fetal bovine serum for 12 hours to synchronize the cell cycle. Growth medium was then added back to cells, and plates returned to the incubator. Each day for 6 days, cells were removed with trypsin and counted with a hemacytometer.\nAnother set of experiments were conducted using the same procedure just described to address two issues: (1) whether the autoactive response observed in the first set of experiments was simply a consequence of the transformation process, and (2) to determine what effect ligands had on the ability of CCX CKR to promote cellular growth. […]"}}, "data": [{"molecule": "ELC: chemokine, CCX CKR ligand, also referred to as MIP-3β", "values": [{"measurement": "Change in protein expression on addition of ligand", "setting": "[1]", "result": "only a modest change in protein expression"}, {"measurement": "Effect on protein expression levels", "setting": "[2]", "result": "relatively minor effect on protein expression levels"}, {"measurement": "Affinity of CCX CKR for chemokine", "setting": "CCX CKR [3]", "result": "high affinity"}]}, {"molecule": "CC1CCCCN1CCCN(Cc1ccc(OCc2ccccc2)cc1)C(=O)Nc1ccc(Cl)c(Cl)c1", "note": "(centres unmarked) [Compound I]", "values": [{"measurement": "Modulation of CCX CKR function (agonist or antagonist)", "setting": "CCX CKR [4]", "result": "Compound I (antagonist)"}]}, {"molecule": "CCC(c1nc2ccccc2c(=O)n1C)N(Cc1ccco1)C(=O)Nc1cccc(C(F)(F)F)c1", "note": "(centres unmarked) [Compound III]", "values": [{"measurement": "Modulation of CCX CKR function (agonist or antagonist)", "setting": "CCX CKR [4]", "result": "Compound III (agonist)"}]}, {"molecule": "CC1CCCCN1CCCN(Cc1ccc(OCc2ccccc2)cc1)C(=O)NC12CC3CC(CC(C3)C1)C2", "note": "(centres unmarked) [Compound II]", "values": [{"measurement": "Modulation of CCX CKR function (agonist or antagonist)", "setting": "CCX CKR [4]", "result": "Compound II (antagonist)"}]}, {"molecule": "SLC: chemokine, CCX CKR ligand, also referred to as 6-Ckine (protein, UniProt O00585 24-134, looked up) C-C motif chemokine 21: SDGGAQDCCLKYSQRKIPAKVVRSYRKQEPSLGCSIPAILFLPRKRSQAELCADPKELWVQQLMQHLDKTPSPQKPAQGCRKDRGASKTGKKGKGSKGCKRTERSQTPKGP", "values": [{"measurement": "Change in protein expression on addition of ligand", "setting": "[1]", "result": "only a modest change in protein expression"}, {"measurement": "Affinity of CCX CKR for chemokine", "setting": "CCX CKR [3]", "result": "high affinity"}]}, {"molecule": "TECK: chemokine, CCX CKR ligand (protein, UniProt O15444 24-150, looked up) C-C motif chemokine 25: QGVFEDCCLAYHYPIGWAVLRRAWTYRIQEVSGSCNLPAAIFYLPKRHRKVCGNPKSREVQRAMKLLDARNKVFAKLHHNTQTFQAGPHAVKKLSSGNSKLSSSKFSNPISSSKRNVSLLISANSGL", "values": [{"measurement": "Change in protein expression on addition of ligand", "setting": "[1]", "result": "only a modest change in protein expression"}, {"measurement": "Affinity of CCX CKR for chemokine", "setting": "CCX CKR [3]", "result": "high affinity"}, {"measurement": "Effect on cell growth", "setting": "[5]", "result": "modest effect on cell growth activity, with perhaps even a slight decrease in cell growth"}]}]}
